From doi:10.1101/2023.07.22.550172 (bioRxiv, 2023)

Target: the molecule itself
Test: cryo-EM structure

B1: major pilin PilA of Myxococcus xanthus (MXAN_5783), mature, as the subunit of the type IV pilus (natural protein, UniProt Q59589 13-220, looked up)
chain: FTLIELMIVVAIIGILAAIAIPNFIKFQARSKQSEAKTNLKALYTAQKSFFSEKDRYSDFANEIGFAPERGNRYGYRVSAAAGDCEVRNAADLPVPAAGVPCISNDSFRFGANSAIDDPTPVVARFVPQGAAGWNTTLGVQPTIADCPNCNFFAGARGNADNEATFDDWVIAGFEGSGQVGPCSEAGNVASGTPYNTRNDVACDGAAQ
binding result: binds
